{"source": "patent US9260507B2", "about": "“Peptide promoting cell adhesion and migration” (Symatese, priority 2009, dated 2016)", "molecules": {"B1": {"name": "LG4/5 protein: purified recombinant LG4/5 domain of the alpha3 chain of pre-LN332 (laminin 332) (protein)", "chain": "DTPVASPRSVKVWQDACSPLPKTQANHGALQFGDIPTSHLLFKLPQELLKPRSQFAVDMQTTSSRGLVFHTGTKNSFMALYLSKGRLVFALGTDGKKLRIKSKEKCNDGKWHTVVFGHDGEKGRLVVDGLRAREGSLPGNSTISIRAPVYLGSPPSGKPKSLPTNSFVGCLKNFQLDSKPLYTPSSSFGVSSCLGGPLEKGIYFSEEGGHVVLAHSVLLGPEFKLVFSIRPRSLTGILIHIGSQPGKHLCVYLEAGKVTASMDSGAGGTSTSVTPKQSLCDGQWHSVAVTIKQHILHLELDTDSSYTAGQIPFPPASTQEPLHLGGAPANLTTLRIPVWKSFFGCLRNIHVNHIPVPVTEALEVQGPVSLNGCPDQ"}}, "key": {"[1]": {"tested_on": "normal human fibroblasts", "assay": "Cell adhesion test (crystal violet colorimetric), normal human fibroblasts", "assay_type": "cell-based", "conditions": "5 μg peptide or 1 μg LG4/5 protein immobilised, FIG. 14B", "description": "(A) Showing the binding of syndecan-1 to the peptide KKLRIKSKEK (SEQ ID NO: 1). A lysate of normal human fibroblasts and a lysate of normal human keratinocytes were prepared as described in the Materials and Methods section and 2 mg of each lysate were incubated with neutravidin beads not coated or coated with the biotinylated peptide KKLRIKSKEK (SEQ ID NO: 1). A positive control was performed with the keratinocyte lysate to compare the size and quantity of syndecan-1 in the 2 cell types. After washing, the material bound to the beads was digested with a mixture of heparitinase I and chondroitinase ABC to release the protein part of the syndecan-1 from the glycosaminoglycans. The samples were then analysed by SDS PAGE electrophoresis in an 8% acrylamide gel under non-reducing conditions and by immunoblotting with polyclonal anti-syndecan antibody H174. The position of molecular weight markers is shown on the left. (B, C) Cell adhesion of normal human fibroblasts to the peptide KKLRIKSKEK (SEQ ID NO: 1) and to the LG4/5 protein. In one case (B), 5 μg of peptide KKLRIKSKEK (SEQ ID NO: 1) and 1 μg of protein LG4/5 were immobilised on a 96-well plate and in the other (C), the peptide KKLRIKSKEK (SEQ ID NO: 1) was immobilised at the concentrations indicated in the abscissa. […] After washing, the adherent cells were fixed and cell adhesion was measured as described in the methodology section. […]"}, "[2]": {"tested_on": "HT1080 cells", "assay": "Inhibition of cell adhesion by competition (HT1080 cells on LG4/5 and LN332 substrates)", "assay_type": "cell-based, Human", "conditions": "competitor in solution: peptide 20 μg/ml, LG4/5 protein 10 μg/ml, anti-LG4/5 antibody 10 μg/ml applied to substrate", "description": "The LG4/5 (white bars) and LN332 (grey bars) proteins (1 μg/well) were adsorbed in 96-well plates. (A) Effect of the polyclonal anti-LG4/5 antibody on cell adhesion to the LG4/5 and LN332 protein. After saturating the wells, a solution of anti-LG4/5 antibody (10 μg/ml) was applied for one hour before performing the adhesion test with HT1080 cells (6·10^4 cells/well). (B, C) Effect of the LG4/5 protein and the peptide KKLRIKSKEK (SEQ ID NO: 1) in solution on syndecan-1 dependent adhesion to the LG4/5 fragment. The HT1080 cells were detached from the dishes and put into the wells (6·10^4 cells/well) as they were or in the presence of the LG4/5 protein (10 μg/ml) or the peptide KKLRIKSKEK (SEQ ID NO: 1) (20 μg/ml) as indicated on the graph. (A, B, C) The plates were incubated at 37° C. for 1 hour. After washing, the adherent cells were fixed and cell adhesion was measured as described in the methodology section. Cell adhesion in the presence of antibodies or competitor proteins was shown as a percentage of the cell adhesion obtained on the same substrate without competitor.\n96-well plates were coated with the amounts indicated of peptide KKLRIKSKEK (SEQ ID NO: 1) or laminin 332 by adsorption at +4° C. for 16 to 18 hours. As before, the wells were saturated with a solution of 1% PBS-BSA for one hour. […]"}, "[3]": {"tested_on": "normal human keratinocytes", "assay": "NHK wound closure in a confluent keratinocyte layer (time-lapse videomicroscopy)", "assay_type": "cell-based", "conditions": "LG4/5 protein 10 μg/ml, peptide 20 μg/ml", "description": "NHKs were seeded in 24-well plates and grown until confluence. The medium was removed and a wound was made in the cell layer using a pipette tip. After rinsing with PBS, the areas were incubated with KBM-2 culture medium at 37° C. in the absence or presence of LG4/5 protein (10 μg/ml) or the peptide KKLRIKSKEK (SEQ ID NO: 1) (20 μg/ml). The behaviour of cells around the wound was then immediately followed by time-lapse videomicroscopy with an image recorded every hour for 48 hours in a moist chamber containing 5% CO2. (A) Images recorded at the beginning of the experiment, at 24 h and 48 h show the total area of the wound covered by cells during the experiment and under each condition (the black lines represent the edges of the wound at the start of recording). Bar, […]. (B) The wounded areas (without cells) were measured at the start, at 24 h (grey bars) and 48 h (black bars) using the Adobe Photoshop CS3 Extended program (version 10.0) in the different conditions. The rate of closure of each wound was expressed as a percentage of the initial wound. […]\nVideomicroscopy experiments were performed with a Zeiss Axiovert 100M microscope fitted with a CCD camera (1 image every 10 minutes or every hour). In the experiments of FIG. 11, we analysed the movements of 100 cells using Metaview software (Roper Scientific, Princeton Instruments, Evry, France)."}, "[4]": {"tested_on": "normal human keratinocytes", "assay": "Cell viability test (XTT)", "conditions": "100 to 1 μg/ml, medium renewed every two days (repeated twice)", "protocol": "NHKs were seeded in 96-well plates at 10^4 cells per well. After 24 hours, the culture media were removed and replaced with KBM-2 medium containing the concentrations of peptide [sequence] (SEQ ID NO: 1) (upper curve) or LG4/5 protein (lower curve) shown. After 48 h of contact at 37° C. the media were removed and this step was repeated twice. After 48 h of contact at 37° C. the media were replaced by XTT reagent. The plates were then placed in an incubator at 37° C. and the absorption was read after 6 hours. Controls with neither peptide nor protein were made on the same plate.\nThe effect of the peptide on the cell viability of the normal human keratinocytes was analysed using a colorimetric assay (XTT Cell Proliferation Kit, Roche Diagnostics, Meylan, France). A control with the LG4/5 protein was carried out in parallel. The chemical reaction of the test is based on the production of NADPH in living cells reducing yellow tetrazolium XTT salts to orange formazan salts. Absorption at 490 nm is measured using an ELISA plate reader. […] In this case, cell viability was calculated from the formula: % viability=(Abs. cells with peptide/Abs. control cells)×100."}}, "data": [{"molecule": "B1", "values": [{"measurement": "Adhesion of human dermal fibroblasts to the immobilised substrate", "setting": "[1]", "value": "adhere"}, {"measurement": "Effect on HT1080 cell adhesion to the immobilised LG4/5 fragment", "setting": "[2]; LG4/5 substrate 1 μg/well", "value": "blocked adhesion to the immobilised LG4/5 fragment"}, {"measurement": "Effect on HT1080 cell adhesion to LN332", "setting": "[2]; LN332 substrate 1 μg/well", "value": "without affecting adhesion to LN332"}, {"measurement": "Area of the wound covered by cells (wound closure)", "setting": "[3]; 24 h", "value": 65, "unit": "%"}, {"measurement": "Area of the wound covered by cells (wound closure)", "setting": "[3]; 48 h", "value": 91, "unit": "%"}, {"measurement": "Cytotoxic effect on epidermal keratinocytes (percentage of viable cells vs controls)", "setting": "[4]", "value": "neither peptide […] (SEQ ID NO: 1) nor protein LG4/5 has any long-term cytotoxic effect"}]}]}
